B1: Transcription elongation regulator 1-like protein, residues 448 to 504; numbered along this chain, Q5VWI1 (parent)
chain: LPLEERVTHFRDMLLERGVSAFSTWEKELHKIVFDPRYLLLNSEERKQIFEQFVKTR
B2: Nanos homolog 2, residues 63 to 115; numbered along this chain, P60321 (parent)
chain: CNFCKHNGESRHVYSSHQLKTPDGVVVCPILRHYVCPVCGATGDQAHTLKYCP

Variants of: B1
Assay: abundance fitness (aPCA) (normalised: wild type 0, dead -1); higher = more abundant; growth selection in yeast, the domain comes from the species named
Details: Homo sapiens

Abundance fitness of substitutions, site by site:
F53: W -0.05, G -0.368, E -0.964, T -0.964, Y 0.15, V -0.797, A -0.949, C -0.828, R -0.837, L -0.747, S -0.718, H -0.466
E51: H -0.077, M -0.413, L -0.522, N -0.147, W -0.766, I -0.632, G -0.618, C -0.96, A 0.047, P -0.929, R -0.594, K -0.278, Q -0.255, Y -0.375, D -0.04, T -0.281, S -0.28, V -0.669, F -0.288
I49: D 0.515, W -0.743, L 0.035, E -0.3, R -0.782, M -0.599, V 0.082, S -0.669, Y 0.129, G -0.643, Q 0.437, P -0.886, T 0.117, C -0.261
F50: K -0.835, R -0.714, Q -0.866, D -0.624, T -0.924, M -0.605, V -0.833, L -0.413, G -0.759, W -0.17, N 0.347, Y 0.082, A -0.887, E -0.69
K55: P -1.19, Q -0.19, S -0.04, H -0.218, M 0.06, W -0.543, D -0.514, G -0.278, C -0.382, T 0.212, N -0.267, A -0.266, E 0.209, Y -0.667, L -0.124
V54: A -0.451, D -0.32, R -0.348, I -0.199, S -0.222, E -0.821, W -0.624, P -0.811, C -0.303, M -0.505, F -0.082, K -0.396, T -0.093, G -0.632
Q52: I -0.592, D 0.193, M -0.428, C -0.402, H -0.426, K -0.238, N -0.506, V -0.526, S -0.151, W -0.621, F -0.922, T -0.33, E 0.114, L -0.435, Y -0.804, A -0.395, P -0.618
T56: I -0.034, C -0.214, Q 0.022, G -0.303, N 0.05, A 0.035, V -0.477, W -0.482, E 0.336, L -0.311, K -0.078, P 0.109, R -0.456, S -0.017, D 0.635

Variants of: B2
Assay: as above
Details: Homo sapiens

Abundance fitness of substitutions, site by site:
I30: G -0.081, M 0.015, N 0.039, L -0.033
V38: T 0.016, R 0.172, N -0.012, I -0.16
G8: F -0.202
Q45: L -0.037, G -0.003, P -0.429, V -0.047, I -0.214
V27: I 0.053, F -0.049, E -0.148, D -0.09, H 0.096
C52: F -0.789, M -0.788, K -0.488, E -0.64
D23: G -0.132
H17: E -0.512, R -0.644, P -0.828
E9: P -0.25, R -0.125, D -0.298
H6: M -0.047, T -0.091, E -0.027, C -0.099
K20: P -0.561, S -0.168, E -0.47, Y -0.455, F -0.336, A -0.111, N -0.388, D -0.118, Q -0.47
C39: A -0.986, M -0.717, Q -0.428
L31: S -0.433
